T1: HSV UL42 (processivity factor of HSV DNA polymerase) (herpes simplex virus (HSV), UniProt P10226 1-488)
T1 sequence: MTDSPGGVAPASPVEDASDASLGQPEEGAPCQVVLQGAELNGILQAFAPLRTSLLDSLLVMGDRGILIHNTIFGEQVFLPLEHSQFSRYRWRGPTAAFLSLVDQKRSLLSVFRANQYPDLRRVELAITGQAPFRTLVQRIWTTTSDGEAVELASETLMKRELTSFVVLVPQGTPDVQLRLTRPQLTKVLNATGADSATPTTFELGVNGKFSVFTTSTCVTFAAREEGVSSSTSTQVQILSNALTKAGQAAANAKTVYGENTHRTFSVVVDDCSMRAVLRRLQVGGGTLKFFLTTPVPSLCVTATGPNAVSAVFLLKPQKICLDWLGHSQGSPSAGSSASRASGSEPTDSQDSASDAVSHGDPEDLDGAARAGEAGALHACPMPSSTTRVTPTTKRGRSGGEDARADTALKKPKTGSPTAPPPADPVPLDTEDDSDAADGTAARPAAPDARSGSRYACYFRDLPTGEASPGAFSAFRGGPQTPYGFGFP

B1: peptide E mutant R30A (peptide)
peptide: ATAEETRRMLHAAFDTLA
B2: peptide E mutant E23A (peptide)
peptide: ATAEATRRMLHRAFDTLA
B3: peptide E mutant E22A (peptide)
peptide: ATAAETRRMLHRAFDTLA
B4: Peptide E (last 18 residues of HSV DNA polymerase, Pol residues 1218-1235) (peptide)
peptide: ATAEETRRMLHRAFDTLA
B5: peptide E mutant L28A (peptide)
peptide: ATAEETRRMAHRAFDTLA
B6: peptide E mutant T34A (peptide)
peptide: ATAEETRRMLHRAFDALA
B7: peptide E mutant H29A (peptide)
peptide: ATAEETRRMLARAFDTLA
B8: peptide E mutant L35A (peptide)
peptide: ATAEETRRMLHRAFDTAA
B9: peptide E mutant F32A (peptide)
peptide: ATAEETRRMLHRAADTLA
B10: peptide E mutant D33A (peptide)
peptide: ATAEETRRMLHRAFATLA
B11: peptide E mutant R25A (peptide)
peptide: ATAEETARMLHRAFDTLA
B12: peptide E mutant R26A (peptide)
peptide: ATAEETRAMLHRAFDTLA
B13: peptide E mutant T24A (peptide)
peptide: ATAEEARRMLHRAFDTLA
B14: peptide E mutant T20A (peptide)
peptide: AAAEETRRMLHRAFDTLA
B15: peptide E mutant M27A (peptide)
peptide: ATAEETRRALHRAFDTLA
B16: Peptide A (C-terminal 36 amino acid residues of HSV DNA polymerase, Pol residues 1200-1235) (peptide)
peptide: DDVAARLRAAGFGAVGAGATAEETRRMLHRAFDTLA

How the values were obtained:
[1] = target: T1, HSV UL42 (processivity factor of HSV …); assay: cell-based or functional assay
[2] = target: T1, HSV UL42 (processivity factor of HSV …); assay: cell-based or functional assay; remark: listed apart in the source

Binder | inhibition of long-chain DNA synthesis at 100 µM [1] | IC50, inhibition of long chain DNA synthesis [2] | IC50 relative to that of peptide E [1]
B1 | < 20 % inhibition at 100 µM | > 100 µM | –
B2 | – | 21 µM | –
B3 | < 20 % inhibition at 100 µM | > 100 µM | –
B4 | – | 11 µM | –
B5 | – | 18 µM | –
B6 | – | 10 µM | –
B7 | < 20 % inhibition at 100 µM | > 100 µM | –
B8 | 50 % inhibition at 100 µM | 97 µM | –
B9 | < 20 % inhibition at 100 µM | > 100 µM | –
B10 | – | 50 µM | –
B11 | – | 40 µM | 3 to 7 fold
B12 | – | 14 µM | –
B13 | – | 77 µM | 3 to 7 fold
B14 | < 20 % inhibition at 100 µM | > 100 µM | –
B15 | 40 % inhibition at 100 µM | > 100 µM | –
B16 | – | 1.7 µM | –

Reference: patent US20070055459A1 (Harvard, published 2007)
